In article PMC9453709 (2022) one finds EC50 data, which are given here for two molecules.

In assay [1] the target is SARS-CoV-2 wild-type spike S1 subunit (WT-S1) (SARS-CoV-2). The assay can be described thus: ELISA. In general terms: In an ELISA, binding on a coated surface is turned into a signal by an enzyme label.
For assay [2], the target named is SARS-CoV-2 wild-type receptor-binding domain (WT-RBD) (SARS-CoV-2, UniProt P0DTC2 319-541). The assay can be described thus: ELISA.

B1: F61, recombinant human immunoglobulin G1 (IgG1) (antibody, V domains shown)
VH: EVQLVESGGGLVQPGGSLRLSCEASEIIVNRNYMNWVRQAPGKGLEWVSIIYPGGSTFYADSVKGRFTISRDNSKNTMYLQMNSLRAEDTAVYYCARSYGDFYVDFWGQGTLVTVSS
VL: QSVLTQPPSVSAAPGQKVTISCSGSSSNIGNNYVSWYQQLPGTAPKLLIYDNNKRPSGIPDRFSGSKSGTSATLGITGLQTGDEADYYCGTWDSSLSAWVFGGGTKLTVL
Usually EC50 stands for the concentration that produces a half-maximal response. Lower therefore signals an effect from little substance. For the molecule B1, the EC50 in assay [1] worked out at 3.12 ng/mL; in assay [2] it was 3.01 ng/mL.

B2: D2, recombinant human immunoglobulin G1 (IgG1) (antibody, V domains shown)
VH: EVQLVESGGGLVQPGRSLTLSCGASGFTFEDYAMHWVRQAPGKGLEWVSGIDWNSGVIGYADSVKGRFIISRDNAKNSLYLHMRSLTAEDTALYYCAKDVYSESGSGSYYDYWGQGTLVTVSS
VL: QSVLTQPPSVSAAPGQKVAISCSGSTSNIGDNFVSWYQQFPGTAPKLLLYDDARRPSGIPDRFSGSKSGTSATLGITGLQTGDEAVYFCSTWDNSLNVVLFGGGTKLTVL
In the case of B2, the figures for the EC50 in assay [1] and in assay [2] were 3.53 ng/mL and 4.41 ng/mL, respectively.
